We go through nine molecules from patent US20230242675A1 (SHANGHAI EPIMAB BIOTHERAPEUTICS, published 2023).

Test [1] has as its target T1, human PD-L1/His fusion protein (human, UniProt Q9NZQ7 19-239). The test can be described thus: BLI off-rate; test group 1. The protocol:
(§1) All 15 antibodies in Table 13 were assayed for and ranked by dissociation rate constant (koff). […] Briefly, antibodies were characterized for affinities and binding kinetics by Octet®RED96 biolayer interferometry (Pall ForteBio LLC). Antibodies were captured by Anti-hIgG Fc Capture (AHC) Biosensors (Pall) at a concentration of 100 nM for 30 seconds. Sensors were then dipped into running buffer (1×pH 7.2 PBS, 0.05% Tween 20, 0.1% BSA) for 60 seconds to check the baseline. Binding was measured by dipping sensors into a single concentration of recombinant human PD-L1/His fusion protein (Novoprotein). Dissociation was followed by dipping sensors into running buffer for 1200 seconds. The association and dissociation curves were fitted to a 1:1 Langmuir binding model using ForteBio Data Analysis software (Pall). […] The off-rate ratio serves as a data normalization. Accordingly, in each test group, the off-rate ratios of the humanized antibodies can be compared with that of the chimeric antibody, and the off-rate ratios of each of the humanized antibodies can be compared to one another within all test groups.

The target in test [2] is T1, human PD-L1/His fusion protein. The test can be described thus: BLI Octet RED96, antibody on AHC sensor, single conc. PD-L1/His; test group 1. The protocol:
as §1

For test [3] the target is unchanged. The test can be described thus: BLI off-rate; test group 3. How it is done:
as §1

Test [4] shares this target. Briefly: BLI Octet RED96, antibody on AHC sensor, single conc. PD-L1/His; test group 3. The protocol: as §1
For orientation: Biolayer interferometry detects binding as a change in optical thickness at a sensor tip.

The target in test [5] is T2, human TGFβ1 (human, UniProt P01137 279-390).
T2 construct: also called TGFβ isoform 1; TGFβ1 (Cat. No. CA59, Novoprotein)
Briefly: ELISA: human TGFβ1 coated (1 µg/ml), binding protein titrated 0.0006-10 nM, anti-human IgG Fc-HRP, OD450. The protocol: (§2) Accordingly, each of the wells of the ELISA microplates provided a reaction mixture to test the ability of a particular binding protein at a particular concentration to bind to a particular TGFβ isoform. […] Plates were washed three times in washing buffer (PBS containing 0.05% Tween 20) and blocked for 1 hour at 37° C. with 200 μl per well of blocking buffer (1% BSA in PBS containing 0.05% Tween 20). […] The wells containing the various binding mixtures were incubated at 37° C. for 1 hour to permit binding to TGFβ protein on the surface of the wells. Thereafter, the wells were washed four times with washing buffer, and anti-human IgG Fc HRP (Sigma, Catalog No. A0170) was diluted 1:10000 and added to the wells at 100 μl per well to detect binding protein that was bound to TGFβ protein present on the surface of a well. The plates were incubated for 1 hour at 37° C. and washed four times with washing buffer. 100 μl of tetramethylbenzidine (TMB) chromogenic solution were added per well. Following color development, the reaction was stopped with 1 N HCl, and absorbance at 450 nm (OD450) was measured on a VARIOSKAN™ LUX microplate reader (Thermo Scientific™).
(In general: In an ELISA, binding on a coated surface is turned into a signal by an enzyme label.)

Test [6] concerns the target T3, human TGFβ2 (human, UniProt P61812 303-414).
T3 construct: also called TGFβ isoform 2; TGFβ2 (Cat. No. CJ79, Novoprotein)
T3 sequence (looked up): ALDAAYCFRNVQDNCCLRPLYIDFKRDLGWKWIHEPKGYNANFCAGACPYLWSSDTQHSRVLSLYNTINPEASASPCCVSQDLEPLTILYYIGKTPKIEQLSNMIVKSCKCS
The test can be described thus: ELISA: human TGFβ2 coated (1 µg/ml), binding protein titrated 0.0006-10 nM, anti-human IgG Fc-HRP, OD450. How it is done: as §2

Positions count from the first letter of the chain named. Numbers in names are those of the source.

T1 sequence (Q9NZQ7 19-239 limits assumed): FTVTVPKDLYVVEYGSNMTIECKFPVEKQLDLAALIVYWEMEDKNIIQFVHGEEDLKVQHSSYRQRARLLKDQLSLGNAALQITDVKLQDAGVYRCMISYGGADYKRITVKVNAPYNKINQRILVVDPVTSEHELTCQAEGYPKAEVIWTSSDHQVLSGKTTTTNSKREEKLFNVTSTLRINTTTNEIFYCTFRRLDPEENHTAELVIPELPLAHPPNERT
T2 sequence (P01137 279-390 limits assumed): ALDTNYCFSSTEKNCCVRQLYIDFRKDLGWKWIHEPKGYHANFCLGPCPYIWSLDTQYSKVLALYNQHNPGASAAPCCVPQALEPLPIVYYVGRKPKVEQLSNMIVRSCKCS

B1: HuEM0005-86-1 (antibody, human IgG1, V domains shown)
VH: EVQLVQSGAEVKKPGASVKVSCKASGYTFTTYGINWVRQAPGQGLEWMGYIYIGNGYTEYNEKFKGRVTMTTDTSTSTAYMELSSLRSDDTAVYYCARDLMVIAPKTMDYWGQGTTVTVSS
VL: DIQMTQSPSSVSASVGDRVTITCKASQDVGTAVAWYQQKPGKAPKLLIYWASTRHTGVPDRFTGSGSGTDFTLTISSLQPEDFATYYCQQYSSYPYTFGGGTKVEIK
The koff is a measure of how fast the partners let go of each other. High values mean a short-lived complex, low ones a long-lived complex. Regarding B1, in test [1], the “Off-Rate Ratio to that of EM0005-86c” value came to 120%. Further, the koff in test [2] is 0.00147 s⁻¹.

B2: HuEM0005-86-13 (antibody, human IgG1, V domains shown)
VH: B1 VH with A24T, M48I, R67K, V68A, M70L, T72S, T74P, S77R
VL: B1 VL with A43S, Y87F
For the molecule B2, the “Off-Rate Ratio to that of EM0005-86c” value in test [3] turned out to be 116%. Besides, in test [4], the koff was 0.00119 s⁻¹.

B3: HuEM0005-86-14 (antibody, human IgG1, V domains shown)
VH: B1 VH with M48I, M70L, T72S, T74P, S77R
VL: B1 VL with A43S, Y87F
Consider B3, for which the “Off-Rate Ratio to that of EM0005-86c” value in test [3] is 81%. The koff in test [4] turned out to be 0.000838 s⁻¹.

B4: HuEM0005-86-3 (antibody, human IgG1, V domains shown)
VH: B1 VH with M70L, T72S
VL: B1 VL
As to B4, the “Off-Rate Ratio to that of EM0005-86c” value in test [1] is 115%. The same molecule gave an off-rate (koff) in test [2] of 0.00142 s⁻¹.

B5: HuEM0005-86-2 (antibody, human IgG1, V domains shown)
VH: B1 VH with T72S
VL: B1 VL
B5: the “Off-Rate Ratio to that of EM0005-86c” value in test [1] came to 72%. For the same molecule, in test [2], the dissociation rate constant (koff) was determined as 0.000887 s⁻¹.

B6: HuEM0005-86-6 (antibody, human IgG1, V domains shown)
VH: B1 VH with A24T, M48I, R67K, V68A, M70L, T72S, T74P, S77R
VL: B1 VL
notes: measured without the G55A change
Turning to B6, the “Off-Rate Ratio to that of EM0005-86c” value in test [1] turned out to be 99%. The koff in test [2] stood at 0.00122 s⁻¹.

B7: HuEM0005-86-5 (antibody, human IgG1, V domains shown)
VH: B1 VH with M48I, R67K, V68A, M70L, T72S
VL: B1 VL
Take B7: the “Off-Rate Ratio to that of EM0005-86c” value in test [3] amounted to 120%. Further, the koff in test [4] was 0.00124 s⁻¹.

B8: EM0005-86c-G55A (antibody, human IgG1, V domains shown)
VH: QVQLQQSGAELVRPGSSVKMSCKTSGYTFTTYGINWVKQRPGQGLEWIGYIYIGNAYTEYNEKFKGKATLTSDPSSRTAYMQLSSLTSEDSAIYFCARDLMVIAPKTMDYWGQGTSVTVSS
VL: DIQMNQSHKFMSTSVGDRVSITCKASQDVGTAVAWYQQKPGQSPKLLIYWASTRHTGVPDRFTGGGSGTDFTLTISNVQSEDLADYFCQQYSSYPYTFGGGTKLEMK
notes: Chimeric antibody with G55A (Kabat) in CDR-H2; also called HuEM0005-86-G55A
As for B8, the “Off-Rate Ratio to that of EM0005-86c” value in test [3] was 108%. Moreover, in test [4], the koff amounted to 0.00111 s⁻¹.

B9: bintrafusp alfa (bispecific antibody, human IgG1, lambda)
heavy: not shown
light: QSALTQPASVSGSPGQSITISCTGTSSDVGGYNYVSWYQQHPGKAPKLMIYDVSNRPSGVSNRFSGSKSGNTASLTISGLQAEDEADYYCSSYTSSSTRVFGTGTKVTVLGQPKANPTVTLFPPSSEELQANKATLVCLISDFYPGAVTVAWKADGSPVKAGVETTKPSKQSNNKYAASSYLSLTPEQWKSHRSYSCQVTHEGSTVEKTVAPTECS
notes: also called M7824; Bintrafusp alfa protein
By EC50 is commonly meant the concentration at which the effect is half-maximal. Read a low EC50 as higher potency in that assay. Regarding B9, the EC50 was determined as 0.696 nM in test [5] and 3.6 nM in test [6].
